Experimental findings from publication PMC10207940, “Characterization of RBD-specific cross-neutralizing antibodies responses against SARS-CoV-2 variants from COVID-19 convalescents” (Frontiers in Immunology, 2023) are described below.

Experiment [1] deals with T1, SARS-CoV-2 RBD as crystallised with 3G10 and 3C11 (SARS-CoV-2, prototype (WH-1)).
T1 construct: also called prototype (PT) RBD
Put plainly: crystal structure. The conditions noted are these: both partners purified.

Experiment [2] deals with T2, SARS-CoV-2 RBD (receptor binding domain) with Avi-tag, biotinylated (SARS-CoV-2, WH-1 (Wuhan-Hu-1, MN908947), UniProt P0DTC2). The experiment is described as follows: cell-based or functional assay.
For experiment [3], the target named is T2, SARS-CoV-2 RBD (receptor binding …). Put plainly: BLI; biotinylated RBD (5 μg/mL in PBST: PBS, 0.02% Tween 20, 0.1% BSA) immobilised on streptavidin biosensors; antibodies 500-7.8125 nM, 120 s association, 300 s dissociation; 1:1 binding model. The conditions noted are these: both partners purified.

Where only a bound is given, the exact number is not on record here.

B1: antibody 3C11 (antibody, V domains shown)
VH: EVQLVESGGGLVQPGGSLRLSCAASGFAFSTYEMNWVRQAPGKGLEWVSYIHNSGNPVYYADSVKGRFTISRDNAENSLYLQMNSLRAEDTAIYYCARALRYSTSWYDYWGQGTLVTVSS
VL: EIVLTQSPVSLSLSPGERATLSCRASQSVSSYLAWYQQKPGQAPRLFIYDASKRATGIPARFSGSGSGTDFTLTISSLEPEDFAVYYCQQRSNWPRTFGQGTKVEIK
A word on the Kd: it is the free concentration of one partner at which half of the binding sites on the other are occupied at equilibrium, for simple one-to-one binding. Low values mean tighter binding, high ones weaker binding. In the case of B1, in experiment [1], the binding result was “binds”. Moreover, in experiment [2], the “IC50 of neutralisation of SARS-CoV-2 pseudovirus (WH-1), luciferase read-out on Vero cells” value (“IC50 … luciferase read-out on Vero cells” for short) was less than 0.1 µg/mL and the “IC50 of neutralisation of authentic SARS-CoV-2 WH-1 virus, CPE-based method on Vero cells” value (“IC50 … CPE-based method on Vero cells” for short) came to 0.028 µg/mL. Binding in experiment [3] was put at a Kd of 5.29 nM.

B2: antibody 1D7 (antibody, V domains shown)
VH: QVQLVQSGAEVKTPGSSVKVSCKASGGSFSNYAISWVRQAPGQGLEWMGRIIATLGISNYAQKFQGRVTMTADKSTSTAYMELSSLRSEDTAVYYCASPITNFGVLIEVDAFHIWGQGTMVTVSS
VL: EIVLTQSPFTLSLSPGERATLSCGASQSVSSSYLAWYQQKPGLAPRLLIYDGSSRATDIPDRFSGSGSGTDFTLTISRLEPEDFAMYYCQQYSTSPLTFGGGTKVEIK
On to B2, for which, in experiment [2], the “IC50 … luciferase read-out on Vero cells” value is less than 0.1 µg/mL and the “IC50 … CPE-based method on Vero cells” value is 0.009 µg/mL. This molecule also yielded a Kd in experiment [3] of less than 0.001 nM.

B3: antibody 3G10 (antibody, V domains shown)
VH: EVQLVESGGGLVQPGESLRLSCAASGLTVSSNYMSWVRQAPGKGLEWVSVIYAGGSTFYADSVKGRFTISRDNSKNTLYLQMNSLRAEDMAIYYCARDLSYYGMDVWGQGTTVTVSS
VL: DIQLTQFPFSLSASVGDRVTITCRASQGISTYLAWYQQKPGRAPKLLIYAASTLQSGVPSRFSGSGSGTEFTLTISSLQPEDFATYYCQLLNSYPVHFGQGTKLEIK
On to B3, for which the binding result in experiment [1] was “binds”. In experiment [2], the “IC50 … luciferase read-out on Vero cells” value was less than 0.1 µg/mL and the “IC50 … CPE-based method on Vero cells” value stood at 0.028 µg/mL. Further, in experiment [3], the Kd is 1.37 nM.
